Reference: patent US20100028993A1
Square brackets hold non-standard residues; d marks the D form. Ends that are not written are not given here. Hyp = O=C(O)[C@@H]1C[C@@H](O)CN1

Columns and labels:
[1] = molecular target: growth hormone receptor (GHR) on GHR-expressing NIH 3T3-L1 cells (Mus musculus (Mouse)) (UniProt P16882); assay: radioreceptor competition assay; displacement of [125I]-hGH from monolayers of GHR-expressing NIH 3T3-L1 cells
[2] = molecular target: anti-hGH-(SO)10 antibodies (1:10,000 serum dilution); assay: competition ELISA; hGH-(SO)10-coated plates, anti-hGH-(SO)10 serum 1:10,000, 100 ug/ml (SO)10 as competitive inhibitor

Chain of UniProt P16882 (P16882 25-650 limits assumed, form in doubt): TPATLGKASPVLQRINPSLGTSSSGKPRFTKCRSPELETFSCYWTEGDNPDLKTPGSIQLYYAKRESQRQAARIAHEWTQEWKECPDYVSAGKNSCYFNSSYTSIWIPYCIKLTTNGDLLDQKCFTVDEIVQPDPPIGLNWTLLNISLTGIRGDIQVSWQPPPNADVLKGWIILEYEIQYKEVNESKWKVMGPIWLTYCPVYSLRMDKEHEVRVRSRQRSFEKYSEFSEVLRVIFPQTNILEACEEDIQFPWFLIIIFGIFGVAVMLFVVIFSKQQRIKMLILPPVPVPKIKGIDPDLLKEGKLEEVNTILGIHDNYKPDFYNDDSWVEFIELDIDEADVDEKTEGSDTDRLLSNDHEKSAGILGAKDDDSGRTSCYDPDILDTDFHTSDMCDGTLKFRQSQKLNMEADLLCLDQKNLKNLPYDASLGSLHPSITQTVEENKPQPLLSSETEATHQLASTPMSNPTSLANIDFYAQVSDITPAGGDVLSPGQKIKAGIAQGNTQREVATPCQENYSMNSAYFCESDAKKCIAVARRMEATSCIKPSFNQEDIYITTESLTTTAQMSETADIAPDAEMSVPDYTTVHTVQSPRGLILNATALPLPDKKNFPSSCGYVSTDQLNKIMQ

Row | EC50 [1] [nM] | percent inhibition [2] [%] | Molecule
1 | 10 | – | hGH-(SP)10-EGFP fusion glycoprotein (ligand)
2 | – | 5 | S[Hyp]S[Hyp]S[Hyp]S[Hyp]S[Hyp]S[Hyp]S[Hyp]S[Hyp]S[Hyp]S[Hyp] (not fully specified) [purified (SP)10 / (SO)10 glycomodule]
